The target in assay [1] is recombinant human Pro-Factor D (human) (UniProt P00746). Put plainly: ELISA: antibody titrated 3-fold from 3 ug/ml on plate coated with 1 ug/ml recombinant human pro-Factor D; HRP anti-mouse, rat or human secondary; OD450. (An ELISA detects its analyte on a solid surface through an enzyme-linked reagent.)
Assay [2] has as its target recombinant human mature Factor D (human) (UniProt P00746). Nature of the assay: ELISA: antibody titrated 3-fold from 3 ug/ml on plate coated with 1 ug/ml recombinant human mature Factor D; HRP anti-mouse, rat or human secondary; OD450.

As usually defined, the EC50 (read off the curve) is the concentration giving half of the maximal effect. With MAB18241 (antibody), the 50% effective concentration (EC50 (read off the curve)) in assay [1] was 0.02 µg/mL; in assay [2] it was 0.04 µg/mL.

The values above are taken from US20250179160A1.
